Source: US11021533 (VANDERBILT UNIVERSITY, dated 2021)

B1: ZIKV-216 (antibody, V domains shown)
VH: EVQLVQSGAEGKKPGESLKISCKGSGYNFSNYWIGWVRQMPGKGLEWMGIIYPGDSDTRYSPSFQGQVTISADKSINTAYLQWRSLRASDSAMFYCARGVMITTPNPYDWFDAWGQGTLVTVSS
VL: QSALTQPASVSGSPGQSITISCTGTGSDIGTYDYVSWYQQHPGKAPKLMIYGVTKRPSGVSHRFSGSKSVNTASLTISGLQAEDEADYFCSSYSTSSTFVVFGGGTKLTVL
B2: ZIKV-195 (antibody, V domains shown)
VH: QVQVVESGGGVVQPGRSLRLSCAASGFTFSSSAMHWVRQAPGKGLEWVAVISYDGSNKYYGDSVKGRFTISRDNSKNTLYLQMHSLRAEDTAVYYCAKDRDAYNTVGYFAYYYGMDVWGQGTLVTVSS
VL: QSVLTQPPSVSEAPRQRVTISCSGSSSNIGNNAVNWYQQLPGKAPKLLIYYDDLLPSGVSDRFSGSKSGTSASLAISGLQSEDEADYYCAAWDDSLTRYVFGTGTKVTVL
B3: ZIKV-117 (antibody, V domains shown)
VH: QVQLVESGGGVVRPGGSLRLSCAASGFTFKNYGIHWVRQAPGKGPEWVAFVRYDGNNKYYADSVKGRFTISRDNAKNTLSLQMNSLRVEDTAVYFCARDPETFGGFDYWGQGTLVTVSS
VL: ETVMTQSPATLSVSPGERGTLSCRASESVSSNLAWYQQKPGKAPRLLIYGASTRATGIPDRFSGSGSGTEFTLTISSLQSEDFAVYYCQQYYYSPRTFGQGTKVEVK
B4: ZIKV-116 (antibody, V domains shown)
VH: EVKLVESGRGLVRPGGSLRLSCAASGFTFSNYAMSWVRQGPGMGLEWVSTITADSDSKYYVDSVKGRFTISRDNSKDTLFLHMTSLRAEDTAVYYCAKDRLSRGVGELYDSWGQGTLVTVSQ
VL: DIQMTQSPSTLSASVGDRVTITCRASQSIDVWLAWYQQKPGKAPKLLMYKTSTLQTGVPSRFSGSGSGTEFTLTISSLQTDDFATYYCQKYDSYPWTFGPGTKVEIK

biological target: ZIKV strain H/PF/2013 (French Polynesia, 2013) virus (Zika virus, strain H/PF/2013); assay: cell-based or functional assay

Point of comparison: B1, “FRNT50 (focus reduction neutralization test on Vero cells)” value 16 ng/mL. Against it:
- B2 — 22-fold higher, 346 ng/mL
- B3 — 3.2-fold lower, 5 ng/mL
- B4 — the same, 16 ng/mL
